Measurements as given in the DeepSol protein solubility set.

Test: soluble on expression in E. coli; label from the status in PepcDB or PDB records

Sequence	soluble on expression in E. coli
MGSDKIHHHHHHMVYPVRIDTIRYDRKFSFVVFVEDIQSSHQIIDNIMDIGDEIGYPYEVIVSAKDQVTDDYYSDEIKVVGTGLNRRSDGIQRSLKSSTGNYFVIFDPNIRYSLSYADLLYGYAETGSSEVLVSEILGFQTDVLRSVGGWRDLSYGEDIDLLVRVIDNYGVITYPFYGLKQIDLTELIKSTDSIRSGKIKKLRDLIISCNFKYQDIKTIAKILDKSSRISRLLYLSKILSNFARIRPYERPKNNYLTIMERIMESILAKEFLKITTVDFKPSLAISTKTAEYLAGESPLWRITEENGNFVREKI	not soluble
MGSDKIHHHHHHMWGYLQGKQVALKRNRVDLYHFGYMIRSKSARKLGTTTAQQIKDITDEIRAFLVKDHRDILSESFMNKEKRAAVEQIIKSFLLSNQVVISDVPSEQLLNMVCDDIVGFGIIEPLKEDQDVTDIYINGTKEIIYEKIGEGELTFPYRFETEEEVKALAYKMVNSTSESLNTAKPYVDCVFPYIRINIALDELGGLGTTITIRKNADHLRASEERMLSTNQASKEMLDFLAAAVKAKMNILVAGATGTGKSEFMKFLASHIPKGKKKERTLVVEDNPELYLHRIFPEHHFVPMQCRASEVEENAIDFDRLLTNALRQGPKRLIVGESRGKEALKMINFFQTGHPGFTSVHARSAIEAVRRLMLMCLQSGANIDAQYLYELISQTFDVIVFLEKKDDGNRYITEMIELLDYRGDIQFNELSQFIPTYEEQDEINESIGKIHGQHIITGKMSAKMEKKFRSATSVNPALYAPFLSQQEVQYA	not soluble
MGSDKIHHHHHHMWHLFLECAFKIFLFEHSFKYFLNNFSKLGRLIIPSLKKTQIMRNAEFDRKAVLCAAMSVFTAKGYAKTSMQDLTKATGLHPGSIYCAFENKKGLLIAAIGQYQDERHQQFVRLFDNDAPCLSNLSNYLTEIVDECLSQDMSKACLLTKTLNEVGSQDEEIKTLITANLTAWQAALTAVFSLAQKNNEIDSQANSQELAQYLMMGIYGLRTFAHTHKDGQQLAQLAKKLLADVSR	not soluble
MGSDKIHHHHHHMYGIVIVEDEELERQALRTILTENIDGIRILGEARTGTEAVALIDSCEIDLMLVDINIPNLNGLEVIRHLRDRHADTKVIITTAYDYFETTRTAIQLKVDEYLLKPIRTQALVTTIQSCIGQLGAGRQCRELVGRIADLVEQDGYQEGVTLVRRHIEWICTQRGHVPRDLILDFAGALVALARDKGLRLPDALTQQIGQLRTMPLDAQTGYQALGTFLGVVDLLFDVTGERFGYSSNTVKKVLNYIERNLTKRITLEDAAEYANISPSYLSRMFKKTLNVNFISYLTTRRIELAKETLIGTERPITAISQELSYSDVNYFCKSFKKEVGVSPTEYRRQSRLAQGAPPPREAALATG	not soluble
MGSDKIHHHHHHMYLSQLKAGGVICRQGETARLVPGFSSTYDLAKAAIAAKVSITDLIAKQGAGDTVDLAALAASGKLDCPVRHPDAAHMFLTGTGLTHTGSASARDNMHADTAGMSDSMKMFRMGLEGGKPKAGEWGVQPEWFYKGTGVNAIAPGDGLESPSFALDGGEEPEIAGFYVIDNDGTPVRLGFSLANEFSDHVTEKINYLYLAHSKLRPASFGPELLVGDLPANVTGASKILRDGKTVWEKPFLSGEDNMSHTIANLEYHHFKYGLFCQPGDLHVHMFGTATLSFADGFKTVPGDVFEVSASQFGLPLQNPLVVAAETPFAVKTL	not soluble
MGSDKIHHHHHHMYQEISKLLMYGDLPQDEILYKLGQLFEQFEVGEYNKTELVRDINTQVKRILKVATDYGFDDNLWHNYLTFFLMMSENPFSITCEKVGASDGSVNGLVANDFRIFKKLFDYDFKPIESALGIDCFTQISNYKAIVKKDLMYNHNVSEKVRALSKKLEAAKDEQEFFDVVTGFYKAYGVGMFGLNKAFRIEEHLDGGFSFMPINNMDAVMLDDLIGYEIQKKKLTDNTEAFVQGKKANNVLLFGDSGTGKSTSIKAIVNQYYDDGLRMIEIYKHQFKYLSKIIAAIKNRNYRFIIYMDDLSFEEHEIEYKFLKAVIEGGVETKPDNILIYATSNRRHLIKETWNDRNDQDNSNDKHHSDTVEEKLSLVNRFGVTISYSKPSQKEFFNIVTELARKSGCTLSDEELCREANKWELSHGGISGRTATQFVNYIMANN	not soluble
MGSDKIHHHHHHMYRILVINPGSSSTKVAVFEDEKKIAEKNVSHSVEELKKFKRSMDQEPLRRKAVEDFIDEVGYRIEDFSAIAARGGVLEPVPGGTYVVNEYMVDYLINRSPVDHVSNLAAVIGYKLGKPHGIPCFVVDPVSVDEMCDEARFSGIPEIERKSYSHALNIKAVLRKVSREMGKTPEEVKIVVAHLGSGISVCACKNGKIIDVNNANDEGPFSIERTGELPVGDVVKTAYSSKHSAAELKEEFTRKGGLLAYLGTKNLKKALDSMETSRKAKLVVEAMAYQIAKEIGGMCAVLGEKPDAIVITGGMAHEIRFVRMITDYIEKFGKVEVIPGELEMEALALGVLRVLRGEEKAMDYRSVVE	not soluble
MGSDKIHHHHHHNSISDSEVHVMVKTFEGHHVNRLEVLKNTWASDVSRIEYCSDKEDPAIPTINLGVDNTDRGHCAKTWEIFRRFLGSSGNGAKWLVVADDDTLMNFKRLKQMLELYDSGDKIIIGERYGYGFSLNGDSGYDYPTGGSGMIFTRSAVESLLAQCPSCIANTDPDDMTIGICALTAGIPIVHESRLHQARPLDYAPEYIKYPISFHKFTDIDPISVYYEYLVELEEYN	not soluble
MGSDKIHHHHHHPWRLLTPDQRYQKRQSQLKSTMSDFFTWCESVHALPQSKFGRAIDYALSQREAMENVLLDGRLELSNNRVERAVKELVIGRKNWLFSTSFKGARSSGIILSVMRSAEANGLDCRKYLEYLFTELPNLSVPGDSKALQDYLPWSSQVRAICAR	not soluble
MGSDKIHHHHHHQEPENQTLETILNRKSVRKYKDRPVEKEKIDKLIRAGMAAPSSRDRRPWEFIIVTDRKALDTMAEGLPFARMLKETRQAIVVCGDTIKSSNAWFLDCSAASQNLLLAAESMGLGAVWTAVYPYPDRIEIVRKELRLPDHIMPLNVIPVGYPMQKETPKNKYNVQQIHHNGW	not soluble
MGSDKIHHHHHHQSMKKEEVPQNISAFPLGKENTGFKQYFTGESWLAPLTGNKDLNVPMSNVTFEPGCRNNWHSHTGGQILIAVGGVGYYQERGKAARRLLPGDVVEIAPDIEHWHGAAPDSWFSHLAIGCNPQTNKNIWLEQVDDQQYAEATKDNGGTGLSATDPELDAIFGNFTKEVQQYGNLDTKTRLMVTLASNIASQAQTEYRMMLESALNAGITPIEIKEILYQAVAYAGMAKVMDFVGITNEALLAHGVRLPLEGQAVVSAETRFDKGLALQKSIFGERIDQMHKNAPENQKHIQRYLSANCFGDYQTRGGLDVKTRELLTFSILVSLGGCESQVKGHIQGNVNVGNNKDTLLAVVTQLLPYIGYPRTLNAIACLNEVIPEK	not soluble
MGSDKIHHHHHHSCKQAPDAGVKSSYAVMQIEPTDKELSSSYSATIRGRQDIDIYPQVSGTIEKLCVTEGQKVRRGQLLFIIDQVPYRAALKTATANVEAARAATSTAELTYKSNKELYAQKVVSEFSLKTAENSYLTAKAQLAQAEAQEISARNNLSYTEVKSPSDGVVGALPYRAGALVSANIPYPLTTVSDNSDMYVYFSMTENQLLALTRQYGDMDEALKNMPEVELILNDNSVYQKKGTIESISGVIDRQTGTVVARVVFPNESRLLHSGASGTVVVPSIYKNCIAIPQTATVRMQDKTIVYKVVDGKAVSTLITVAGINDGREYVVLDGLKAGDEIVSEGAGLVREGTQVK	not soluble
MGSDKIHHHHHHTCSACIQYHESCAWCGAPMFDEKKPYARCDSRAKLMEHGCPNSYIEDPATKLDITEDSKLSDQGQVESEEEAVQIKPQEMYVEIRPKSRVRFNVTYRQAVDYPVDLYYLMDLSYSMKDDKQKLSELGDLLAERMRTVTKNFRLGFGSFIDKKLMPFIDPRIEKQLSPCPTPCAEPYGFKHQMSLTTNTAKFKAEVDKAEISGNLDAPEGGFDAVVQALACNKTIGWRERARKMIVFSTDAGFHFAGDGRLAGVVEPNDGTCHLDREGYYTETLNQDYPSIALLHQMIKDRKANVIFAVTKNNQDLYTQLSNALPDVSSSVGVLANDSRNIVDLIEKEYLKISEKIIMVDNANASEGLKLTYRSMCLDGTTLKDTNVCEGIRVGDEVQFEVTLENTHCIDKRDFVLRIGPSGLDETLIVNVKVLCDC	not soluble
MGSDKIHHHHHHTQTTEKENEFSMSMQIRPRAEYRNGALVPRNEGQKAASFINNRARLSLDYKRSDLEIKMSAQHVGVWGQDPQIDKNGRFILNEAWAKLDFGKGFFAQLGRQTLVYDDERILGGLDWNVAGRYHDALKLGYANKNNEIHAILAFNQNDEKTAGGTYYNSSIGQPYKNMQTVWYHYKADKIPFGASLLFMNLGLETGNQLTQDSHTRYLQTMGTYLTYKNSGWNLDGAFYYQTGKNKDAESVSAFMASATAAYAFNKTWGMVVSFDYLSGNEEGSSKFKAFDPLYGTHHKFYGSMDYFYASAFNKGFAPGLIDGRLGARFRASAKVDMELNYHYFATATEVDFKEDLKKSLGSEVDYQINWSVMKDVKLSAGYSFMLGTKTMDAVKGGNHKSWQDWGWVSVNINPKVFFTKW	not soluble
MGSDKIHHHHHHVAKAELMQLPASQMVIGLTVKLPLGWTQHPFFINRIKLTSQAQIELIRGLELTFVYVLSGHELLPEVIEEVEDKQADPMQVKAKPKKVLDSKAAVIKAMRVGQQRFLSNINESRSVFAQFAIEPDKAYREAATMVEGFVDHLQETDTPYLALVGSGEMDVSVTQHGISVAVLSLMIGHALELPKSDLRDLALGSLFHDFGKLKIPDNIRRKRSELTEPEQNYLKMHPNLGFDLLNACNLYPKSVLNIVLHHHEYIDGSGYPDHLTEKDIPLLTQIVSLANDYEGLLEQFTFSPQLALGTLFKSHAKKHAQNLIAALVKVLGIYPPGTLVSLSDGSIGKVMMTTREVKQPHVWSCNLGGGEANLRFLLEEDVTVSSVLRLEELTEGALKTLQADSPISFYFSALPDN	not soluble
MGSDKIHHHHHHVEQTMFTNEVILSWLQYFSKNAPINLAKLKMLDITGKNKNLIPTVMSNRAVLVFTDAGHPDIFYDMWNAELGDCDIWYNEGSEPSGEIKHDKVSDMINRGINASAAMLILNPNAATNYHIGMENSRFSCGSVQYVCREVRAVIMNKLNLGDQDNICIISGESIAVEAAMIAAEGSVIAVEYDRRDRNTMQENVKKFDLNNVTIVESLENGIPDKLPVPDIAFIVGSPRIGSEIKALLSINPVMDFVIYTLDFEVLMSLPALFRENGLERTEAIHVAVSRVNSKKMVEPFPAPWLISGRSIKG	not soluble
MGSDKIHHHHHHVERRIFGLENEYGVTCTFRGQRRLSPDEVARYLFRRVVSWGRSSNVFLRNGARLYLDVGSHPEYATPECDNLLDLVAHDKAGERILEGLQIDAEQRLREEGIAGDIYLFKNNTDSAGNSYGCHENYLVARHGEFGKLADVLIPFLVTRQIICGAGKVLQTPRGALYCVSQRAEHIWEGVSSATTRSRPIINTRDEPHADAERFRRLHVIVGDSNMSETTTLLKLASTDLVLRMIEANVPMRDFTLENPIRAIREISHDMTGRRKVRLANGREASALEIQREYLERVQSFVDRTGTDATGKRVLELWQRTLEAVESGNLDLVAREIDWVAKYKLLERYRAKHGLSLSSPRVAQLDLTYHDIHRDRGLFYLLQQRGQMERVVSDLRIFEAKSVPPQTTRARLRGEFIKKAQEKRRDFTVDWVHLKLNDQAQRTVLCKDPFKAVDERVEKLIAGM	not soluble
MGSDKIHHHHHHVGRIEGQACPATGIWLLPARRQTAYRIQKTSYSALSAPARMDGTDRLAWGRYDTVGTTLYLAENAECAFSETLSPFKRAIGTVDPLRKDADALGMTLEDFYEEVAYQWQEKSFMNSGTLPRIWRTERQLHIVELPFPGWWIDVEHPETMAAVEAAIPDTLKDLGITHVDTSLLRSNRRDVTTAIADHLRDLVLFDGSYAPGIKFGSRHGAYLNWAVWLRDHDLQLSGDDGLVHLGESPISFNDPDLEAASRRFRLKVF	not soluble
